The record followed here is article PMC9910460 (Proceedings of the National Academy of Sciences of the …, 2022).

The target in the assay is TF-Mec1 1–500aa (Saccharomyces cerevisiae, UniProt P38111 1-500). Description: pull-down.
Sequence of TF-Mec1 1–500aa (P38111 1-500): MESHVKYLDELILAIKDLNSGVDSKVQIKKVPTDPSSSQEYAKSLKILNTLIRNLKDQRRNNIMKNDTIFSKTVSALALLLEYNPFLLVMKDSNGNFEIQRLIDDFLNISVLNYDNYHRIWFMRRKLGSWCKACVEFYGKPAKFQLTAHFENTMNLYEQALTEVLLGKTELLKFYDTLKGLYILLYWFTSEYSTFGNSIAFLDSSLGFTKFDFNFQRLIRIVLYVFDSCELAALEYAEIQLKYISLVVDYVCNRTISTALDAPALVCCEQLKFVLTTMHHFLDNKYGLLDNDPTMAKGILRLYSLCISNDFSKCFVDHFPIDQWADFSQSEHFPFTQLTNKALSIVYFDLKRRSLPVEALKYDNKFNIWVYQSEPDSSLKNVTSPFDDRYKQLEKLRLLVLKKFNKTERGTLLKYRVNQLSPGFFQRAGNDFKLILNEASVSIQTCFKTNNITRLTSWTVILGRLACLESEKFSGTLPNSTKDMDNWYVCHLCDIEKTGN

B1: GST–Atg13 460–640aa (domain or fragment, Saccharomyces cerevisiae, UniProt Q06628 460-640, looked up)
chain: ESQEDLMDFVKLLEEKPDLTIKKTSGNNPPNINISDSLIRYQNLKPSNDLLSEDLSVSLSMDPNHTYHRGRSDSHSPLPSISPSMHYGSLNSRMSQGANASHLIARGGGNSSTSALNSRRNSLDKSSNKQGMSGLPPIFGGESTSYHHDNKIQKYNQLGVEEDDDDENDRLLNQMGNSATK
Turning to B1, the binding result is on record as “binds”.
